Experimental data reported in the supplement of paper PMC10567573.
± gives the standard deviation.

Assay: protein stability index of a GFP-peptide fusion (GPS, HEK-293T) (PSI 1-6); higher = more stable
Settings: c terminus: a fixed tail appended
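Also: 24-mer peptide tiles fused after GFP, lentivirally expressed, FACS-sorted into six equal bins by GFP/DsRed ratio, decoded by Illumina sequencing, PSI is the read-weighted mean bin number.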

Sequence	protein stability index (treatment: DMSO)	protein stability index (treatment: MLN4924 1 uM, 8 h)
HQRIHTGEKPFECNECGKAFRWGA [ZNF232]	2.64 ± 0.5	2.61 ± 0.67
HRKAVHLRTRGRTRGWVQTLARMS [C6orf223]	2.57 ± 0.34	2.49 ± 0.17
HRNLSQLPNFAFSVPLAYFLLSQQ [TCF25]	2.26 ± 0.56	2.65 ± 0.26
HRTVKLVPWSQCLQNFLLHGTKNV [WSB1]	2.19 ± 0.17	1.99 ± 0.21
HSGEKPYKCSDCGKTFKQSSNLGQ [ZNF232]	3.76 ± 0.3	3.57 ± 0.37
HSGTKRDPKEDVFQQNHLFWLQNS [PHTF1]	3.42 ± 0.25	3.33 ± 0.26
HSKASLPTGEGSISHEEQKSVRLA [CHCHD6]	5.14 ± 0.2	5.15 ± 0.17
HSKQYRCLSFQPECSMKLTPLVLE [VDR]	2.5 ± 0.29	2.42 ± 0.14
HSQELTNEKEKALQAQVQYQQQHE [SASS6]	5.45 ± 0.26	5.51 ± 0.14
HTGEKPYTCHECGDSFSHSSNRIR [ZNF263]	2.67 ± 0.2	3.4 ± 0.48
HVDSIKFCGATIAGLSLLSPSVMR [ALKBH7]	2.2 ± 0.81	2.19 ± 0.39
HVRHMAYQLCHALRFLHENQLTHT [CLK3]	3.06 ± 0.3	3.01 ± 0.38
HVRQGVFSSLNHIVEKRVLAHLAP [INTS3]	2.32 ± 0.21	2.41 ± 0.12
HYAGQDATDPFVAFHINKGLVKKY [FADS1]	3.21 ± 0.26	3.14 ± 0.11
IAIVSVMVILISIVIFCLETLPEL [KCNA1]	2.39 ± 0.25	2.44 ± 0.16
ICDRTATPLDAFRMTSAAHYYPKL [GFOD1]	2.85 ± 0.21	2.82 ± 0.16
ICEATQIIDYLEQTFLDERTPRLM [GDAP1]	2.39 ± 0.24	2.45 ± 0.18
ICEQAEYHMFQREKVEVQLPELFH [KCNAB2]	3.17 ± 0.24	3.06 ± 0.29
ICPICLEMFTKPVVILPCQHNLCR [TRIM55]	2.42 ± 0.17	2.96 ± 0.51
ICQGIRGLWGTTLTENTAENRELY [PKD2L1]	3.03 ± 0.19	3.37 ± 0.21
IEERKQGLEQFINKVAGHPLAQNE [SNX3]	4.54 ± 0.13	4.31 ± 0.47
IELNPPEKMALDPYTELRKQPLRK [EFHC1]	4.08 ± 0.2	4.21 ± 0.33

Sequence	protein stability index (treatment: DMSO)	protein stability index (treatment: MLN4924 1 uM, 8 h)
IFRSYSRGAQGVILVYDIANRWSF [RAB40A]	2.53 ± 0.36	2.36 ± 0.35
IFSLATEWVISTGHDKCVSWMCTR [WDFY1]	2.94 ± 0.47	2.85 ± 0.66
IGCVFAELLTGQPLWPGKSDVDQL [CDKL4]	2.09 ± 0.32	2.15 ± 0.57
IHGTLHLERLAYLHARLRELLCEL [PRAME]	2.04 ± 0.3	2.06 ± 0.31
IHLDPRTREGFTLLHLAVNSNTPV [FEM1B]	2.24 ± 0.41	2.17 ± 0.27
IKGKSCRTITFEQFQEALEELAKK [TPPP]	2.53 ± 0.26	2.62 ± 0.36
IKPENILITKQGIIKICDFGFAQI [CDKL4]	2.18 ± 0.29	2.49 ± 1
IKSEDMLKILKPSIPLERIHFDSY [FBXO33]	2.43 ± 0.23	2.36 ± 0.29
IKYFRVDFYEAMDDYTSAIEVQPN [TTC32]	2.48 ± 0.51	2.1 ± 0.46
ILILEGGYNLTSISESMAACTRSL [HDAC6]	2.97 ± 0.61	2.63 ± 0.8
ILLNGVSGWIFFYVPSSESFIIYL [P2RY14]	2.74 ± 0.27	2.84 ± 0.52
ILTEPAQAQKCYRDLALVSRDGMN [INTS3]	3.28 ± 0.3	3.24 ± 0.6
INGSEGDGAEIAEKFVFFIGSKNG [DYNC2LI1]	2.99 ± 0.21	3.4 ± 0.26
INRTFFFDVHPPLGKMLIGLAGYL [POMT2]	3.07 ± 0.57	2.6 ± 0.59
INVYGNTALHIACYNGQDAVVNEL [ANKRD44]	2.06 ± 0.16	2.23 ± 0.16
INYNGIFSLKQEETLDYGKNYNYG [NEUROD6]	2.49 ± 0.22	2.53 ± 0.22
IPLLSSVNVSDRGGRTALHHAALN [ANKRD44]	3.42 ± 0.38	3.16 ± 0.3
IPQAGGWGPWGPWGDCSRTCGGGV [ADAMTS4]	2.68 ± 0.15	2.47 ± 0.22
IPVLYCMVFIAGILLNGVSGWIFF [P2RY14]	3.28 ± 0.64	2.9 ± 0.37
IRKGESRSEALAVDGAGKPGAEEA [CHGA]	5.48 ± 0.12	5.43 ± 0.31
ISKNSEKKMESEEDSNWEKSPDNE [GOLPH3L]	5.57 ± 0.21	5.58 ± 0.1
ISLNMCLLGALVLLGLGVLLFSGG [PBXIP1]	2.03 ± 0.24	2.15 ± 0.2

Sequence	protein stability index (treatment: DMSO)	protein stability index (treatment: MLN4924 1 uM, 8 h)
ITTNRFYGPQVNNISHTKEKKKGK [WASL]	4.17 ± 0.42	4.37 ± 0.29
IVDQVLEEDFDSEQLSVLASCLQE [INTS3]	4.16 ± 0.16	4.23 ± 0.3
IVISPFRLEELTNRLASLQQENKV [CCDC6]	2.12 ± 0.15	2.4 ± 0.25
IVQGSSGAQGSGGGSTSAHYAVNS [CARM1]	–	3.98 ± 0.91
IVYATEKKQTKVEFPEARIFEETL [KCTD13]	3 ± 0.11	2.85 ± 0.35
IWDALDWTMQAYERNFWDPSPQLD [WDR41]	2.2 ± 0.27	2.02 ± 0.34
IYVIGGYDGRSRLSSVECLDYTAD [KLHL12]	2.86 ± 0.46	2.63 ± 0.41
KAQQEFAAGVFSNPAVRTAAANAA [SCAMP3]	4.13 ± 0.11	4.11 ± 0.24
KARVLRSKSLCHDEIENLLDSDHR [CDC25B]	4.4 ± 0.13	4.62 ± 0.15
KAVVFFVFYLWSAIEIFRYSFYML [HACD3]	3.46 ± 0.28	3.08 ± 0.32
KCEHCRVLFLDHVMYTIHMGCHGF [IKZF1]	2.24 ± 0.38	2.49 ± 0.63
KCVVHIHTPAGAAVSAMKCGLLPI [ADD1]	2.69 ± 0.52	2.17 ± 0.56
KDLSNTFAKLEKLTILAKRKSLFD [STX5]	2.45 ± 0.16	2.51 ± 0.32
KDYNNLWIIKKHNTNSDPLDPSFP [POMT2]	3.15 ± 0.19	3.29 ± 0.26
KELCAMSEEQFRQRSPLGGDVLHA [SPDEF]	3.88 ± 0.27	3.87 ± 0.13
KELDENVEYEERESEFDIEDEDKS [RBBP5]	5.65 ± 0.23	5.62 ± 0.32
KEMEQLFSQYGRIITSRILVDQVT [ELAVL3]	2.94 ± 0.24	3.41 ± 0.58
KEVVKKHSQFIGYPITLYLEKERE [HSP90AB1]	–	3.32 ± 0.24
KFGRTCLHAAAAGGNVECIKLLQS [ANKRD44]	2.44 ± 0.45	2.55 ± 0.12
KFGVVQTSVEECSQKGCLALSLLE [CLCN6]	2.81 ± 0.071	2.99 ± 0.22
KGGYKEFFPQHPNFCEPQDYRPMN [CDC25B]	3.52 ± 0.18	3.37 ± 0.2
